According to patent US20260234290A1, “Antibodies to Stat3 Decoy Oligonucleotide” (The Regents of the University of California, priority 2023, published 2026):

Tested on: CS3D
Test: BLI koff of purified Fabs from CS3D biopanning
Assay type: binding
Description: First, standard biopanning (FIG. 1) was performed with Ag immobilized magnetic beads. A total of six rounds were performed with increasing stringency of washes and decreasing amounts of Ag per round. Assuming strong enrichment occurred continuously throughout the campaign, 95 colonies were randomly picked each round 4-6 (285 clones total) for candidate hit screening.
In efforts to identify improved binders, BIAS was performed with identical clones picked previously that were randomly sequenced. […] Therefore, we hypothesized that strong growth/display propensity biases were a dominant factor during the campaign, leading primarily to the identification of low-affinity binders.
Fluorescent activated sorting was applied to round 4 as both the population percentage and the normalized MFI of the shoulder population are the highest (FIG. 7). The shoulder population (top ~4%) was sorted along with the majority population (bottom ~96%) and both populations were used to infect TG1 (E. coli) cells. […] BIAS hits of the top ~4% sorted population were sequenced, and a new candidate binder, SP1-B3, was identified, along with identical clones of previously identified low-affinity binders.
All buffers were filter sterilized with […] filters prior to preparing samples. Black 384 well microplates were used to set up BLI plates and streptavidin tips were purchased by Sartorius. Kinetic constants of Fabs were determined by Octet RED384 system with continuous shaking at 1000 rpm in RT. Prior to the experiment, biological tips (model name) were presoaked in buffer to allow for equilibration for 1 hour. Data were analyzed using 1:1 interaction model on the ForteBio data analysis software 12.0.
Freshly transformed BL21 (DE3) E. coli single colony clones were picked and inoculated into 50 ml of 2×YT media containing 2% glucose and […] Ampicillin. Starter cultures were grown overnight at 37 °C with 200 rpm shaking. […]

B1: SP1-B3: anti-CS3D Fab from RAPID sorting of round 4; VH SEQ ID NO: 3, VL SEQ ID NO: 4 (antibody, V domains shown)
VH: QVTLQQSGPGLVKPSQTLSLTCAISGDSVSSNSAAWNWIRQSPSRGLEWLGRTYYRSKWFTYYAASVKGRISINRDTSKNQFSLQLNSVTPDDTAVYFCARGSGGYIDHWGQGTLVTVSS
VL: QAVLTQPSSLSASPGASASLTCTLRSGINVDSYRIYWYQQKPGSPPQYLLRYKSDSDKQQGSGVPSRFSGSKDASANAGILLISGLQSEDEADYYCMIWHSSAVVFGGGTKLTVL
koff fold lower than the Fab with the highest koff: > 20 fold
koff fold lower than the previously identified Fab with the lowest koff: ~ 3 fold
koff (measured at 2 μM Fab): 0.0211 s⁻¹
